Test results from publication doi:10.1101/2021.10.12.464104 (bioRxiv, 2021).

Target: mCer-α1 (human Na+/K+-ATPase α1 subunit fused to the C-terminus of mCerulean) (human, UniProt P05023 1-1023)
Assay: FRET or BRET

B1: PLM-YFP (human phospholemman fused to the N-terminus of YFP) (natural protein)
chain: ESPKEHDPFTYDYQSLQIGGLVIAGILFILGILIVLSRRCRCKFNQQQRTGEPDEEEGTFRSSIRRLSTRRR
stoichiometry N: > 1
